± gives the uncertainty stated by the source.

This series is described as follows: amyloid nucleation score (Sup35N fusion, yeast selection) (log enrichment); library NNK1; higher = more nucleation; inactive = no reads after selection. The procedure, abridged:
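Sup35N fusions to peptides of 20 random codons were expressed in psi-negative yeast, induced 24 hours with 100 μM copper sulfate, and grown 7 days at 30°C on medium lacking adenine and uracil. Input and output plasmid inserts were sequenced by Illumina. The nucleation score is the DiMSum log enrichment of output over input reads, centred on the mode score of non-aggregating sequences. Sequences with under 100 input reads were excluded.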
As to DCNFCL, the amyloid nucleation score is -0.545 ± 1.1.

The substance DCSFRCMYAIMLYVLCLSHN gave an amyloid nucleation score of 0.422 ± 0.35.

For the substance DCWRRYYSSLLITVGGLFYK, the amyloid nucleation score was -0.014 ± 0.34.

Consider DCWSITILSVNRGSLFRLTF, for which the amyloid nucleation score result was “inactive”.

On to DCYHLGQTIPISRFGLRTKL, for which the amyloid nucleation score worked out at 0.826 ± 0.75.

Turning to DCYSRNVDLYGCGDDGDILL, the amyloid nucleation score is -0.031 ± 0.25.

The substance DDFTLCKPGLVYMMSG had an amyloid nucleation score of 0.398 ± 0.6.

Substance DDLSGRRELTLRQT returned an amyloid nucleation score of 0.618 ± 0.49.

Consider DDLWSCMFELDAYMSFYLKA, for which the amyloid nucleation score entry is “inactive”.

DDMVPNWARVTCLSQNWL gave an amyloid nucleation score of 0.385 ± 0.54.

With DDNGPTYR, the amyloid nucleation score result was “inactive”.

The substance DDNSMSDTHLL showed an amyloid nucleation score of 1.13 ± 0.25.

DDRTKLQLSMRWEQQIMRHR had an amyloid nucleation score of 3.48 ± 0.12.

The substance DDTDLVLVMRRSIVERGMRE displayed an amyloid nucleation score of 0.437 ± 0.39.

The substance DEDDSD gave an amyloid nucleation score of 0.471 ± 0.46.

On to DEKMVSVSSESGRLHKNVKC, for which the amyloid nucleation score came to 1.11 ± 0.49.

In turn, DETLEEPCT displayed an amyloid nucleation score of 0.017 ± 0.43.

DFARNQDGSFVWN: the amyloid nucleation score is -0.575 ± 0.36.

DFEDTYSWKVTGEGATRKRW registered an amyloid nucleation score of 0.166 ± 0.49.

DFRLGHDFWANKSFFFTSPN yielded an amyloid nucleation score of -0.028 ± 0.31.

Consider DFSYSNPDFVFLTQYIAYEK, for which the amyloid nucleation score was determined as 4.43 ± 0.06.

On to DFVLIIFFCPCRYCSSTHTT, for which the amyloid nucleation score was 3.32 ± 0.2.

DFVRMSRPHG yielded an amyloid nucleation score of 0.563 ± 0.51.

For the substance DGFALGMSRC, the amyloid nucleation score entry is “inactive”.

Turning to DGNNNKLVMVLWLSYADYRW, the amyloid nucleation score entry was “inactive”.

On to DGSNRHLSRSMVGRGRT, for which the amyloid nucleation score was determined as 0.335 ± 0.8.

Regarding DGSSLSPDPSLVWLKDM, the amyloid nucleation score was -0.823 ± 0.55.

Substance DGVEFPFRMIESRFNGCQD had an amyloid nucleation score of -0.613 ± 0.77.

Turning to DHLVEQYDRGDAAFFRLVFV, the amyloid nucleation score entry was “inactive”.

As to DIAHC, the amyloid nucleation score is -0.464 ± 0.59.

As for DIFVLMRAMWHRGMI, the amyloid nucleation score stood at 0.857 ± 0.8.

In the case of DIGLREFNWVTNITTLPQLG, the amyloid nucleation score was 1.33 ± 0.61.

DIGRSAGRGVFVFSLLCNKW: the amyloid nucleation score came to 3.63 ± 0.18.

As for DIHNRDCVLYDRLDRHVYMK, the amyloid nucleation score was -0.083 ± 0.31.

DIILLYSLFADIFISGRIYT registered an amyloid nucleation score of -0.13 ± 0.58.

Consider DILEIWL, for which the amyloid nucleation score is -0.481 ± 0.4.

The substance DIRIPMHLSIDLQVVLSLRY gave an amyloid nucleation score of 0.172 ± 0.63.

The substance DIRLIPCMSMVC showed an amyloid nucleation score of -1.38 ± 1.1.

With DITNVAWNMPNTRCEPKPLK, the amyloid nucleation score is 0.444 ± 1.2.

DIYIMSNGLGYYFFSTNVRM returned an amyloid nucleation score of 2.55 ± 0.19.

The substance DIYRRSVGGRWLRLFSRRVV returned an amyloid nucleation score of 0.209 ± 0.39.

In turn, DKNVSRFIPNEMLCLKPWAP registered an amyloid nucleation score of 1.19 ± 0.9.

The substance DKTGLGRRGPIIFSLSFRWS displayed an amyloid nucleation score of -1.55 ± 1.4.

Substance DKYTARDVSKRT gave an amyloid nucleation score of 1.56 ± 0.59.

On to DLDRDAKLS, for which the amyloid nucleation score is -1.43 ± 0.7.

Regarding DLFDIDLRYFLLRVFKGCP, the amyloid nucleation score worked out at 0.579 ± 0.46.

In the case of DLFYYLRRLITRTWFM, the amyloid nucleation score came to 1.05 ± 0.27.

DLHRRSVCCFENVFVITAYY returned an amyloid nucleation score of 2.06 ± 0.27.

With DLKVNCVGEWADRLFMFSFG, the amyloid nucleation score amounted to 0.683 ± 0.84.

Turning to DLLLRSSTSTVVCIMNRTTS, the amyloid nucleation score was 3.94 ± 0.076.

DLLVNCDAVKLVYLSGYVDV: the amyloid nucleation score turned out to be 0.342 ± 0.23.

As to DLNRSALSRDDGNSVILKCG, the amyloid nucleation score was 0.653 ± 0.68.

With DLRNMKVNTQDVSFLSPRGG, the amyloid nucleation score came out at 0.208 ± 0.29.

In turn, DLVTSYWKIEGPILRSGGNM returned an amyloid nucleation score of -0.563 ± 0.49.

DLVYVSRLYISVNRYPSWFV gave an amyloid nucleation score of -0.462 ± 0.51.

In turn, DMFCQAI came in with an amyloid nucleation score of 0.773 ± 0.39.

In turn, DMKDDRRSFTKGP had an amyloid nucleation score of -0.103 ± 0.69.

As to DMTNAVCTRLNFIRLSTLMK, the amyloid nucleation score is 0.041 ± 0.32.

Substance DMYYNQTRVQKPPVMPQSLK returned an amyloid nucleation score of -0.667 ± 0.78.

Take DNAYPHPCSIYYNNNQFLRF: the amyloid nucleation score stood at 6.734 ± 0.054.

In the case of DNLLEAASNNIIEYVCSPLE, the amyloid nucleation score was found to be 0.501 ± 0.44.

For the substance DNRSFFWNL, the amyloid nucleation score is 2.22 ± 0.13.

As for DPSPLR, the amyloid nucleation score is -0.827 ± 2.4.

DPYTHYVAMRINCYWEMCAL had an amyloid nucleation score of -1.06 ± 0.93.

Substance DQFCDMPTWVLVMYKSRDFL returned an amyloid nucleation score of 0.862 ± 0.55.

DQSWSREWPCVLVHHVHYKD came in with an amyloid nucleation score of 0.626 ± 0.28.

Regarding DQVTYRPWLRELRRQAMCLQ, the amyloid nucleation score was 0.027 ± 1.7.

Take DRDASSLGFIFFFGCLEGLT: the amyloid nucleation score is -0.93 ± 0.76.

DRHRLPILVFLITNRTQRMV had an amyloid nucleation score of -0.098 ± 1.3.

Regarding DRLVDTNYRASGYPVRYMVS, the amyloid nucleation score was -1.31 ± 0.78.

Regarding DRRIEYVVDLGSSCGMTTHV, the amyloid nucleation score came out at 0.049 ± 0.41.

As for DRWDFMQLNCIHLEA, the amyloid nucleation score is 0.885 ± 0.88.

On to DSADMLILILYAAVLLYTIF, for which the amyloid nucleation score is -0.278 ± 0.69.

DSAIWDKNFSLDMGSGFMHC displayed an amyloid nucleation score of -0.125 ± 1.7.

DSCLSYFAILYFRLGFTRMW: the amyloid nucleation score entry is “inactive”.

Consider DSEDSNLSCLLYTQC, for which the amyloid nucleation score is 0.153 ± 0.16.

For DSFMAENMWGLFFDKSESPA, the amyloid nucleation score is -0.517 ± 0.95.

As for DSFQGRS, the amyloid nucleation score was 0.255 ± 0.47.

Substance DSIGVTH registered an amyloid nucleation score of -0.002 ± 0.41.

As for DSKPVIILR, the amyloid nucleation score is -0.516 ± 0.27.

Regarding DSLGGSKSCGSKL, the amyloid nucleation score was 0.891 ± 0.97.

For DSMSRREQG, the amyloid nucleation score is -0.437 ± 0.73.

Turning to DSSHVRLWQYWIMWMLVVNA, the amyloid nucleation score was 1.06 ± 0.39.

Consider DSSRNGKF, for which the amyloid nucleation score is -0.563 ± 0.64.

The substance DSVNRLLSCPINKMLWSNYS showed an amyloid nucleation score of 0.233 ± 0.22.

Substance DTSVFWVKIYIFGSISHWAG displayed an amyloid nucleation score of 0.606 ± 1.

Turning to DVKCAVTLVL, the amyloid nucleation score is -0.055 ± 0.6.

In the case of DVTLVNFIG, the amyloid nucleation score was determined as 0.285 ± 0.48.

In turn, DVYVACTSFDLELCICVMRL registered an amyloid nucleation score of 0.237 ± 0.7.

In turn, DVYVWGGCLVSIKVLWMAWG returned an amyloid nucleation score of 0.117 ± 0.94.

DWHGLTKVMITW had an amyloid nucleation score of 3.31 ± 0.11.

With DWNSNPPHSASAGLPLRFWK, the amyloid nucleation score entry is “inactive”.

DWVVFWIRSFILSPPRAHQN registered an amyloid nucleation score of 0.025 ± 0.41.

For the substance DYAGWPYLPSMHQATLQDAR, the amyloid nucleation score is 0.275 ± 1.2.

For DYCRLMAWLSL, the amyloid nucleation score was determined as 0.315 ± 0.51.

As to DYDGWQLPMCNNITMTWKVC, the amyloid nucleation score is 2.7 ± 0.12.

Take DYFIKWFIYRPLTS: the amyloid nucleation score is -0.504 ± 0.6.

As to DYGVMWI, the amyloid nucleation score was determined as 0.296 ± 0.41.

DYYYSFMKTANR: the amyloid nucleation score is -0.087 ± 0.3.

As to ECCYWPREK, the amyloid nucleation score was 0.422 ± 0.32.

Substance ECSRGVVIIWDMHVGGIDEC registered an amyloid nucleation score of 1.79 ± 0.41.

On to ECVKTVTLVNYRVLRWSSVC, for which the amyloid nucleation score is 0.129 ± 0.35.

The substance EDMTLMLNNFSPILAIGWWT showed an amyloid nucleation score of 1.25 ± 0.25.

In turn, EDNRKIRRVMSIQS registered an amyloid nucleation score of 0.063 ± 0.57.

For the origin of these results see the supplement of paper PMC12042874.
